System: Saccharomyces cerevisiae
Experiment: transcriptional activation domain activity (GFP:mCherry ratio, weighted mean of sorted bins, harmonized to initial dataset scale) (arbitrary fluorescence ratio units); higher = stronger transcriptional activation
Settings: beta-estradiol 1 µM; induction time 4 h
How it was run: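 The listed activation activity is a read-weighted mean of bin median fluorescence, averaged across barcodes and linearly mapped onto the initial dataset scale. Barcoded tiles, fused to an estradiol-inducible synthetic transcription factor, were integrated at URA3 in yeast diploids bearing a GFP reporter. Cells were held 4 hours at 30 °C in SC with 1 uM beta-estradiol, sorted into 8 GFP:mCherry bins, and sequenced, and tiles with fewer than 50 reads were excluded.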

Sequence | transcriptional activation domain activity
MKLVCHSLQLHFLSILVLEDLLIATLRVAQSCITAFFWRNHFSFTCLCLLTML | 63200
MKLVRFLMKLNNETVTIELKNGSVIHGTITSVDPQMNTHLKSVKLSLRTAAPG | 24700
MKPITPKLEEQEPAAYGAAASAATVPTTKRKCVSSACVPCRRRKSKVTPRNPL | 34500
MKQHEYFHLGINLFCPPFFILKSYKEAILSLLLAFKILEIWTFFFIFPLFFLF | 47800
MKRSAAALVSYPSSDEETSEAQAKSEPIKKKKKLPQLSSSLVVPVPVDNPALH | 41300
MKRVLHVRNVARVNSGGKVRSVSALVVVGNGQGAAGYGEGRAVDAAAAVQKAT | 54500
MKRVYKLNTCLFFYNSYNPFHIYFYSFIHSNMPAMYHLFSILLLWLNCLSLVQ | 44500
MKSHDLFFFLLLLFQLTSFSSIQLFPAVRVILHVLSHLFMVLHAYCCLPPFIF | 64400
MKSLPFGIHTAVCDLISLLLLLLLFFFFFFLLASIWVLDNFFPFFPFSRHLYS | 37500
MKSVVFCFLPLFFFCHSSKANHSSTFISMPPFFSLFFFFFPFSHFPTLSVLFG | 50600
MKTINILTTPPLHIFFSTPIVYSLFLLLNFFPIFFFFFFFFLYSLPFFFFIVA | 52100
MKTPPPQLGFFVGVLVLYAFFFIFLFFYFLFYGDIHLKQEDIIYVWNTYWAIW | 20200
MKVDLNKHPSCRRIIWVGYTKICTFLIPDKLLVYLSLTTQARRIAWREKLTLF | 59600
MKVDSYTDYLTGIFIHCGLYDTNHDPNYPALYYRCVLLDSTWLVGLLTCFLWL | 65100
MKVFCSSFPFSNPILFYFSLLQIIFDYWLYNFMGSFYFWLPLAPFFFFFFLVL | 47500
MKVNRPFACSHEGCEKAFARKGELTKHERLHSGERPFACSHCEKAFGRSDARK | 16000
MLAGAFLPLLFGFFFFSFPTSHTPPFHLLPPGFQFLPVSTSFSYFFCFCFFFP | 39100
MLAKGVWLACMFFFFFFFRLSFLNGSWCEYFYYLLCFFNSSYFFSSLSLRISF | 48300
MLAMISFFMYPPPLLFFFALWLSFSLFSIHKPPWLLFQNVHFYVLFLFFSFLA | 36300
MLARFKWSMWRMSLVRALRASLNITLFFYFLFPPRYSYVFLFLFLSFFLFFFS | 32500
MLAWIYGVFFSRSIMYCPLILLITCALDFHFFYFSYLFLWGLFRLRGYIYHGW | 52000
MLAYRSQQGWSEGDFLACRWFFSFFFPLFLPLSPPSFLCPFSFLFLFFLLLHL | 45300
MLAYTHFLIMLDRDILNICCVIYFYCLVFICLLLTFLLLIAPLNTCVGLCWKG | 54400
MLCADLFFRFVLVKILVFILYDYGRGECDIVIMLVFFFFFPPPPPFFSFFFLF | 65300
MLCDATSGLWILLCFFFFCVVLFVLIVSVFSTLPMWMSYSFFFLFVGFDLLLS | 35600

Sequence | transcriptional activation domain activity
MLCFIDLLIFGISLCFLSLLLFLSFFLLFFFFFLVFSEEFVLLHSAAWSFILS | 41200
MLCFLYHLVSMCTLLHCLYLLPVLFLIFYASFFLLLACTWSSVRCLISLFFCL | 57300
MLCGAMPIVSLFSFYTFFFVFWCYLLKFFSVMAWLSTHIALLPSFFVLLTFSL | 40600
MLCIPFCVLFCVVMGLINYGAFVDPCFLSFYVLLSTLLQLPSSFLPFFLFLPP | 66900
MLCIRYLIYFLLLGESLVGSFLPPFTIYISLFFSSSIPCSTWVSFPLLHHTYL | 35900
MLCIWLLSLYVWFVQEKGAYKPVLSSSFFFWLILQVYVHRYWLPFPSLTFLYH | 55500
MLCLCTIWIYNAQICYYLSSCSTLLVTDCCCCYYYSLLFYILTSSFFQILLST | 50100
MLCLGLVDVYVNFLIFQLYNFLFLFGFLRWINEFVFGFPIHCLFCVILYLLIL | 30900
MLCLTYLVFLRVYGHLLWVELGLFFFSFSKSNYHVIRHGLPFFCYNGAWMEFL | 56900
MLCMTMTTCMQWLAQFMIVYSLPYMVVSIKSFTFIFFAVCTTFSFIFTLLFVP | 41900
MLCRLCFFVFTRAVLLYLIGLFFNLFRLCLSLRFNIFVSFVFLDFCMSFPSTL | 40200
MLCYAVLWYFVYITFFYINYDMVFLISYLVFLKQLIDRICIIIFIFSFIFFIF | 47400
MLDLLVVHFPISNGLIEDNDLKVLVKAAVGVVLRKDMSLNRRLYAWLLGAQEG | 44600
MLDVILYLPCLLITYLCWAVWFLFIVFLCFLLCWFCFVIDGLFPFFFITFVFL | 56100
MLDVNMSCPFADIRYLLVFSCYFADYLLMLQIWGFCLWLFTLIYMVGGVWLMV | 34300
MLEGILGWSKWQKYSIKWYIWLPRLFFQSFFPFFSCPISLQKFSVLLFHFFFL | 59700
MLETRFINNLVPLYRFLLPFYIFFFFSIYCYYLTIDPHYFSLSSMVFFFSCCT | 57600
MLFARLHPVADETLIPFFCFWPSRLFVVLLVSFLHLIILFLSCFFFNCFLLFF | 50300
MLFFFCPIYLKLLIFFLCIVRSICQIFVFAYYLHRIYGVVCFSLLFFSKIQLR | 58200
MLFFFLYIFLCGCFPFWNMSIFFSVIPPFFSFLPLMLLFFFFFGMFGQRINIF | 36300
MLFFFSGLLFFLSLLSLVFLFALFFIRISTPTIRFRLWFFLLLLLLFSLFLLF | 45500
MLFFHQDTVVGQLFTRYTALIVLIFKSSSVLVFVLFLFFFFFFWPIRILVSFI | 37100
MLFGRSFMGTYFISGKHVFFFFLVFFNSLFLFYLLTSTFISICITGSLFFFVL | 30400
MLFHFLAFPFLFFIFFLCCFSSWVAFHSPFSFLIMFSFEWIMLFFIRCTASSV | 41600
MLFIFFVIFFYFFLFSSIFFYHFIFLFSLELSLYFVDLSLELIPIYFPVCILS | 46300

Sequence | transcriptional activation domain activity
MLFIPFCVLFFVWLWGLINYGAFVDPCFLSFYVLLSTLLQLPSSSFLSFFALF | 54400
MLFIYEVFPSFSHSPIHSPFISFPSSLPSLSLPESLCICLWIVLFLTFNFYTL | 56900
MLFLFFFIHILHPFFFFFNPFFLFLSFFFISFCTSVCLCMRKQLTRIIFLNYI | 50500
MLFLMCSLFFFVVFFLWSFFCGLLSLWCICYDISVGAWLTFGLLLVLWLLCIC | 23900
MLFLMYIFYLCRCLLLFFLTDIMISLLLPSLFSPLITLFLFFTLFKYMYIYAN | 65400
MLFLPSYSFSVFLFLFLLFALTVQVCLFLFTTWLVSCFDMYVFVWVGVCLCAR | 47700
MLFPCGVLFLSVFSISDTYVAFFFFFFFSFGWSFVSIGFLLFTIFFLGISFFF | 32300
MLFPFRVSAISPDVICFIPLCFSFCYHFAIRVRGILPSRVRALMMYVWFVWYF | 51900
MLFPPPPFSLFFFSLPFFLFFKTDLFFPCLIFLIPLYPFSPLVGDRLAILLGV | 55100
MLFSLYLFFYFLFFVCDGLPYFWFYKHTRFSVNYVSSSPPFCWSLFFLFFYFF | 62000
MLFSLYLFFYFLFFVCDGYVTMGSVFFFCSCWWCSYYYLTINIGLTNYFFPPL | 53300
MLFSTFFHFMILLCFLLLLCFFYFYDFTYLYGPPMIFYFYYFSLCLYLNKLQF | 41600
MLFTIVPLLCILHHIVLHPIFPSLFYTHIHLCTFFFFFNSVFFFFMFYILVFN | 50200
MLFVCFFWLWGWWLVVVVFVFLFFSFFLLLSSEFTDPFAFFCLFFFVLLHFSF | 44000
MLFVFAQLHQVPLSEYFLLGCLYWFFYHIIFSSIFRPSHSIGMASGLPMLYTP | 45000
MLFYFYFYFYFYAFSIFSFYVIFYFLYFFFLFRPGLLYLLLLFFSILFVLFLP | 64900
MLGKGRIMEYLLTFVWGFGVHILIFYLSCTGVIMGFLLIYTYSTFCFCFHHYV | 67600
MLGPFSVFLSVFPPFAAGFGTALFPFFFSCCLCFCCWCTSFALFAPLTALFAV | 53300
MLGSARVWQKRACMGFSFSLVIVSFTPPHRLFSHVQLGSIVSLLFFVTLFNFM | 20700
MLHAGVSNKIAKGWPKEGSCDRASFVHEGVLMMCQRSLVTFIVRSLLLMCYYF | 36800
MLHGSGAVFGSGFLSLVSLVLWLISYYCCTWTWKGIFILSICFFNTCIYIECI | 49800
MLHLAALSPLMLLVFLLFSLFFKFFATFIWLYIMAYILITTLIIVFRITLPAN | 68500
MLHLPLFLLYFFFFSLLLYFSFFPSSFFFFLLSPPFPLLIFSLFLSFLLLFPP | 40200
MLHLVTCISPSLYTSIFFLYLFHYFPSSHFLLNCRTSMHFSLSRLTFIYVLVL | 50200
